Test results: article PMC4959569

How the values were obtained:
[1] = Q-PCR normalised to EWS-FLI1 protein level; conditions: control: mock treated SK-N-MC cells
[2] = Western blot densitometry, antibody 7.3; conditions: glycan lost; control: untreated SK-N-MC cells

Protein | other: transcriptional repression of target gene ([1]; glycan lost) | expression_or_secretion, percent_of_wt [2] | other: transcriptional activation of target gene, fold_change ([1]; glycan gained) | other: transcriptional repression of target gene ([1]; glycan gained)
EWS-FLI1: DON (protein) parent chain: MASTDYSTYSQAAAQQGYSAYTAQPTQGYAQTTQAYGQQSYGTYGQPTDVSYTQAQTTATYGQTAYATSYGQPPTGYTTPTAPQAYSQPVQGYGTGAYDTTTATVTTTQASYAAQSAYGTQPAYPAYGQQPAATAPTRPQDGNKPTETSQPQSSTGGYNQPSLGYGQSNYSYPQVPGSYPMQPVTAPPSYPPTSYSSTQPTSYDQSSYSQQNTYGQPSSYGQQSSYGQQSSYGQQPPTSYPPQTGSYSQAPSQYSQQSSSYGQQSSFRQDHPSSMGVYGQESGGFSGPGENRSMSGPDNRGRGRGGFDRGGMSRGGRGGGRGGMGSAGERGGFNKPGGPMDEGPDLDLGPPVDPDEDSDNSAIYVQGLNDSVTLDDLADFFKQCGVVKMNKRTGQPMIHIYLDKETGKPKGDATVSYEDPPTAKAAVEWFDGKDFQGSKLKVSLARKKPPMNSMRGGLPPREGRGMPPPLRGGPGGPGGPGGPMGRMGGRGGDRGGFPPRGPRGSRGNPSGGGNVQHRAGDWQCPNPGCGNQNFAWRTECNQCKAPKPEGFLPPPFPPPGGDRGRGGPGGMRGGRGGLMDRGGPGGMFRGGRGGDRGGFRGGRGMDRGGFGGGRRGGPGGPPGPLMEQMGGRRGGRGGPGKMDKGEHRQERRDRPY | no change | decreases | – | –
EWS-FLI1: STZ (protein) parent chain: MASTDYSTYSQAAAQQGYSAYTAQPTQGYAQTTQAYGQQSYGTYGQPTDVSYTQAQTTATYGQTAYATSYGQPPTGYTTPTAPQAYSQPVQGYGTGAYDTTTATVTTTQASYAAQSAYGTQPAYPAYGQQPAATAPTRPQDGNKPTETSQPQSSTGGYNQPSLGYGQSNYSYPQVPGSYPMQPVTAPPSYPPTSYSSTQPTSYDQSSYSQQNTYGQPSSYGQQSSYGQQSSYGQQPPTSYPPQTGSYSQAPSQYSQQSSSYGQQSSFRQDHPSSMGVYGQESGGFSGPGENRSMSGPDNRGRGRGGFDRGGMSRGGRGGGRGGMGSAGERGGFNKPGGPMDEGPDLDLGPPVDPDEDSDNSAIYVQGLNDSVTLDDLADFFKQCGVVKMNKRTGQPMIHIYLDKETGKPKGDATVSYEDPPTAKAAVEWFDGKDFQGSKLKVSLARKKPPMNSMRGGLPPREGRGMPPPLRGGPGGPGGPGGPMGRMGGRGGDRGGFPPRGPRGSRGNPSGGGNVQHRAGDWQCPNPGCGNQNFAWRTECNQCKAPKPEGFLPPPFPPPGGDRGRGGPGGMRGGRGGLMDRGGPGGMFRGGRGGDRGGFRGGRGMDRGGFGGGRRGGPGGPPGPLMEQMGGRRGGRGGPGKMDKGEHRQERRDRPY | – | – | no change | no change
